Results on 3 molecules are retold here after PMC5034536, “Molecular insights into substrate recognition and catalytic mechanism of the chaperone and FKBP peptidyl-prolyl isomerase SlyD” (BMC Biology, 2016).

For assay [1], the target named is full-length SlyD from Thermus thermophilus (TtSlyDFL) (Thermus thermophilus).
The target is the same in assay [2]. This is another data set of the same source.

Like-named read-outs stand apart in the source and are kept apart here. No end group written: not given here.

WNPKMKP-NH2 [S2-short8 peptide]: in assay [1], the dissociation constant (Kd) came out at 163 µM, the dH is -5.1 kcal/mol and the stoichiometry N stood at 1.29.

In assay [2], VGSNSYPHKYNNYEG-NH2 [T1 peptide] returned a Kd of 158 µM, a dH of -14.6 kcal/mol and a stoichiometry N of 1.13.

In the case of SGLVPRGS-NH2 [SlpA linker peptide], in assay [2], the Kd is 133 µM, the dH is -0.4 kcal/mol and the stoichiometry N was determined as 1.44.
